One experiment concerns α1 adrenergic receptor. The conditions noted are these: cited from earlier work.
The test system of another experiment is rat mu opioid receptor. The experiment can be described thus: SRE-Luc/Gq5i luciferase reporter assay in HEK293 cells. The class given is cell-based. The following applies: SRE + Gq5i, HEK293 cells. An excerpt:
A positive assay for Gαi coupling (i.e., one that yields an increase in luciferase activity upon receptor activation, instead of a negative assay, one that yields a decrease in luciferase activity upon receptor activation), provides a detectable output signal and less interassay variation. It was hypothesized that Gαi coupling could be detected by altering the signaling pathway generated by Gαi coupled receptors. A chimeric G protein (Gqi5, Broach and Thorner, Nature 384 (Suppl.): 14-16 (1996)) that contains the entire Gαq protein having five C-terminal amino acids from Gαi attached to the C-terminus of Gαq has been generated. This chimeric G protein is recognized as Gαi by Gαi coupled receptors, but switches the receptor induced signaling from Gαi to Gαq. This allows Gαi receptor coupling to be detected using a positive assay by use of the Gαq responsive SMS-Luc or SRE-Luc construct (Stratagene, La Jolla, Calif.). SMS and SRE preferably respond to Gαq mediated inositol and calcium production. Moreover, detection can be carried out in the absence of forskolin pre-stimulation of cells.
Reagents & Solutions: The cell culture media used in the assays described below was Gibco BRL #12100-046. This media was made according to manufacturer's recipe, pH adjusted to 7.2, filtered (0.22 micron pore), and supplemented with 1% Pen/Strep (Gibco #15140-122; 100% penicillin G 10,000 units/ml, and streptomycin 10,000 μg/ml) and 10% fetal bovine serum. Cell culture media lacking 10% fetal bovine serum was also generated. DNA used in the transfection experiments was purified and quantitated by measuring the absorbance at OD260. A LucLite Luciferase Assay Kit (Packard) was used to quantitate luciferase activity. Transfections were carried out using LipofectAMINE Reagent (Gibco #18324-012).
The rat mu opioid receptor is a Gαi coupled receptor. Therefore we chose to use the Gq5i reporter system, described in detail above (Broach and Thorner, supra), which switches the signaling pathway from Gαi to Gαq for reliable positive readout. HEK293 cells were transfected with the reporter construct SRE-Luc, an expression vector containing nucleic acid encoding Gq5i (Broach and Thorner, supra), and an expression vector containing nucleic acid encoding either the wild-type or the Asn150Ala mutant rat mu opioid receptor. Basal and ligand-stimulated luciferase activity was measured. The ligand used in this assay was [D—Ala^2—MePhe^4, Gly-ol^5]enkephalin] (DAMGO). As a negative control, HEK293 cells were transfected with pcDNA1 (empty vector DNA), SRE-Luc, and the expression vector containing nucleic acid encoding Gq5i (Broach and Thorner, supra).
The luciferase assay was carried out as follows. On day 1, HEK293 cells in a T75 flask were washed with 15 ml serum-free media (or PBS), trypsinized with 5 ml 0.05% trypsin-EDTA (Gibco #25300-062), incubated at 37° C. for 3 minutes at which time 6-7 ml complete HEK293 media (Gibco #12100-046) and 10% Fetal Bovine Serum (Intergen #1050-90) were added. Thereafter, cells were collected in 50 ml centrifuge tubes, pelleted at 800-900 rpm (RCF˜275), and resuspend in 20 ml complete media. The cells were counted using a haemocytometer and diluted to 85,000 cells/ml in complete media. Using a repeat pipettor or cell plater, 100 μl of cells were added to each well of a Primaria 96-well plate (Falcon #353872). Cells were then incubated at 37° C., 5% CO2 until use at 48 hours.
On day 3, cells were transfected using LipofectAMINE™ according to the manufacturer's protocol (Gibco #18324-012, Rockville, Md.).
On day 4, cells were stimulated as follows. Ligands for the receptor, either DAMGO or a non-peptide ligand (e.g., naloxone or naltrexone), were diluted to a desired concentration in serum-free media containing 0.15 mM PMSF (or other protease inhibitor(s)). […]

B1: Asp142Ala mutant: α1 adrenergic receptor DRY motif mutant (protein, UniProt P18841 1-515, looked up, variant D142A)
Alpha-1B adrenergic receptor: MNPDLDTGHNTSAPAQWGELKDANFTGPNQTSSNSTLPQLDVTRAISVGLVLGAFILFAIVGNILVILSVACNRHLRTPTNYFIVNLAIADLLLSFTVLPFSATLEVLGYWVLGRIFCDIWAAVDVLCCTASILSLCAISIARYIGVRYSLQYPTLVTRRKAILALLSVWVLSTVISIGPLLGWKEPAPNDDKECGVTEEPFYALFSSLGSFYIPLAVILVMYCRVYIVAKRTTKNLEAGVMKEMSNSKELTLRIHSKNFHEDTLSSTKAKGHNPRSSIAVKLFKFSREKKAAKTLGIVVGMFILCWLPFFIALPLGSLFSTLKPPDAVFKVVFWLGYFNSCLNPIIYPCSSKEFKRAFMRILGCQCRSGRRRRRRRRLGACAYTYRPWTRGGSLERSQSRKDSLDDSGSCMSGSQRTLPSASPSPGYLGRGAQPPLELCAYPEWKSGALLSLPEPPGRRGRLDSGPLFTFKLLGEPESPGTEGDASNGGCDATTDLANGQPGFKSNMPLAPGHF
Consider B1, for which the constitutive activity entry with α1 adrenergic receptor is “constitutively active”.

B2: Arg143Lys mutant: α1 adrenergic receptor DRY motif mutant (protein, UniProt P18841 1-515, looked up, variant R143K)
Alpha-1B adrenergic receptor: MNPDLDTGHNTSAPAQWGELKDANFTGPNQTSSNSTLPQLDVTRAISVGLVLGAFILFAIVGNILVILSVACNRHLRTPTNYFIVNLAIADLLLSFTVLPFSATLEVLGYWVLGRIFCDIWAAVDVLCCTASILSLCAISIDKYIGVRYSLQYPTLVTRRKAILALLSVWVLSTVISIGPLLGWKEPAPNDDKECGVTEEPFYALFSSLGSFYIPLAVILVMYCRVYIVAKRTTKNLEAGVMKEMSNSKELTLRIHSKNFHEDTLSSTKAKGHNPRSSIAVKLFKFSREKKAAKTLGIVVGMFILCWLPFFIALPLGSLFSTLKPPDAVFKVVFWLGYFNSCLNPIIYPCSSKEFKRAFMRILGCQCRSGRRRRRRRRLGACAYTYRPWTRGGSLERSQSRKDSLDDSGSCMSGSQRTLPSASPSPGYLGRGAQPPLELCAYPEWKSGALLSLPEPPGRRGRLDSGPLFTFKLLGEPESPGTEGDASNGGCDATTDLANGQPGFKSNMPLAPGHF
Turning to B2, in the experiment on α1 adrenergic receptor, the constitutive activity entry is on record as “constitutively active”.

B3: Asn63Ala mutant: α1 adrenergic receptor mutant at conserved Asn63 (protein, UniProt P18841 1-515, looked up, variant N63A)
Alpha-1B adrenergic receptor: MNPDLDTGHNTSAPAQWGELKDANFTGPNQTSSNSTLPQLDVTRAISVGLVLGAFILFAIVGAILVILSVACNRHLRTPTNYFIVNLAIADLLLSFTVLPFSATLEVLGYWVLGRIFCDIWAAVDVLCCTASILSLCAISIDRYIGVRYSLQYPTLVTRRKAILALLSVWVLSTVISIGPLLGWKEPAPNDDKECGVTEEPFYALFSSLGSFYIPLAVILVMYCRVYIVAKRTTKNLEAGVMKEMSNSKELTLRIHSKNFHEDTLSSTKAKGHNPRSSIAVKLFKFSREKKAAKTLGIVVGMFILCWLPFFIALPLGSLFSTLKPPDAVFKVVFWLGYFNSCLNPIIYPCSSKEFKRAFMRILGCQCRSGRRRRRRRRLGACAYTYRPWTRGGSLERSQSRKDSLDDSGSCMSGSQRTLPSASPSPGYLGRGAQPPLELCAYPEWKSGALLSLPEPPGRRGRLDSGPLFTFKLLGEPESPGTEGDASNGGCDATTDLANGQPGFKSNMPLAPGHF
Turning to B3, the constitutive activity result with α1 adrenergic receptor is on record as “constitutively active”.

B4: Ala293Glu mutant: α1 adrenergic receptor mutant at carboxyl end of IC3 (protein, UniProt P18841 1-515, looked up, variant A293E)
Alpha-1B adrenergic receptor: MNPDLDTGHNTSAPAQWGELKDANFTGPNQTSSNSTLPQLDVTRAISVGLVLGAFILFAIVGNILVILSVACNRHLRTPTNYFIVNLAIADLLLSFTVLPFSATLEVLGYWVLGRIFCDIWAAVDVLCCTASILSLCAISIDRYIGVRYSLQYPTLVTRRKAILALLSVWVLSTVISIGPLLGWKEPAPNDDKECGVTEEPFYALFSSLGSFYIPLAVILVMYCRVYIVAKRTTKNLEAGVMKEMSNSKELTLRIHSKNFHEDTLSSTKAKGHNPRSSIAVKLFKFSREKKAEKTLGIVVGMFILCWLPFFIALPLGSLFSTLKPPDAVFKVVFWLGYFNSCLNPIIYPCSSKEFKRAFMRILGCQCRSGRRRRRRRRLGACAYTYRPWTRGGSLERSQSRKDSLDDSGSCMSGSQRTLPSASPSPGYLGRGAQPPLELCAYPEWKSGALLSLPEPPGRRGRLDSGPLFTFKLLGEPESPGTEGDASNGGCDATTDLANGQPGFKSNMPLAPGHF
With B4, the constitutive activity result in the experiment on α1 adrenergic receptor is “constitutively active”.

B5: Cys128Phe mutant: α1 adrenergic receptor mutant in transmembrane domain III (protein, UniProt P18841 1-515, looked up, variant C128F)
Alpha-1B adrenergic receptor: MNPDLDTGHNTSAPAQWGELKDANFTGPNQTSSNSTLPQLDVTRAISVGLVLGAFILFAIVGNILVILSVACNRHLRTPTNYFIVNLAIADLLLSFTVLPFSATLEVLGYWVLGRIFCDIWAAVDVLFCTASILSLCAISIDRYIGVRYSLQYPTLVTRRKAILALLSVWVLSTVISIGPLLGWKEPAPNDDKECGVTEEPFYALFSSLGSFYIPLAVILVMYCRVYIVAKRTTKNLEAGVMKEMSNSKELTLRIHSKNFHEDTLSSTKAKGHNPRSSIAVKLFKFSREKKAAKTLGIVVGMFILCWLPFFIALPLGSLFSTLKPPDAVFKVVFWLGYFNSCLNPIIYPCSSKEFKRAFMRILGCQCRSGRRRRRRRRLGACAYTYRPWTRGGSLERSQSRKDSLDDSGSCMSGSQRTLPSASPSPGYLGRGAQPPLELCAYPEWKSGALLSLPEPPGRRGRLDSGPLFTFKLLGEPESPGTEGDASNGGCDATTDLANGQPGFKSNMPLAPGHF
B5: the constitutive activity entry in the experiment on α1 adrenergic receptor was “constitutively active”.

B6: Ala204Val mutant: α1 adrenergic receptor mutant in transmembrane domain V (protein, UniProt P18841 1-515, looked up, variant A204V)
Alpha-1B adrenergic receptor: MNPDLDTGHNTSAPAQWGELKDANFTGPNQTSSNSTLPQLDVTRAISVGLVLGAFILFAIVGNILVILSVACNRHLRTPTNYFIVNLAIADLLLSFTVLPFSATLEVLGYWVLGRIFCDIWAAVDVLCCTASILSLCAISIDRYIGVRYSLQYPTLVTRRKAILALLSVWVLSTVISIGPLLGWKEPAPNDDKECGVTEEPFYVLFSSLGSFYIPLAVILVMYCRVYIVAKRTTKNLEAGVMKEMSNSKELTLRIHSKNFHEDTLSSTKAKGHNPRSSIAVKLFKFSREKKAAKTLGIVVGMFILCWLPFFIALPLGSLFSTLKPPDAVFKVVFWLGYFNSCLNPIIYPCSSKEFKRAFMRILGCQCRSGRRRRRRRRLGACAYTYRPWTRGGSLERSQSRKDSLDDSGSCMSGSQRTLPSASPSPGYLGRGAQPPLELCAYPEWKSGALLSLPEPPGRRGRLDSGPLFTFKLLGEPESPGTEGDASNGGCDATTDLANGQPGFKSNMPLAPGHF
On to B6, for which, in the experiment with α1 adrenergic receptor, the constitutive activity entry is recorded as “constitutively active”.

B7: wild-type rat mu opioid receptor: wild-type rat mu opioid receptor expressed from an expression vector, comparator (protein, UniProt P33535 1-398, looked up)
Mu-type opioid receptor: MDSSTGPGNTSDCSDPLAQASCSPAPGSWLNLSHVDGNQSDPCGLNRTGLGGNDSLCPQTGSPSMVTAITIMALYSIVCVVGLFGNFLVMYVIVRYTKMKTATNIYIFNLALADALATSTLPFQSVNYLMGTWPFGTILCKIVISIDYYNMFTSIFTLCTMSVDRYIAVCHPVKALDFRTPRNAKIVNVCNWILSSAIGLPVMFMATTKYRQGSIDCTLTFSHPTWYWENLLKICVFIFAFIMPVLIITVCYGLMILRLKSVRMLSGSKEKDRNLRRITRMVLVVVAVFIVCWTPIHIYVIIKALITIPETTFQTVSWHFCIALGYTNSCLNPVLYAFLDENFKRCFREFCIPTSSTIEQQNSTRVRQNTREHPSTANTVDRTNHQLENLEAETAPLP
On to B7, for which, in the experiment with rat mu opioid receptor (ligand DAMGO), the “Average Ligand Stimulated Activity (Light Emission)” value was 87,461. Further, in the experiment on rat mu opioid receptor (no ligand), the “Average Basal Activity (Light Emission)” value was 8,436.

(Values after patent US20020147170A1 (priority 2000, published 2002).)
